Test results from US20100047264A1 (published 2010).
Where no end group is shown, it is not given here.

T1: free (non-NLP) HCV core protein (1-170) (hepatitis C virus (plasmid pCV-H77c), UniProt P27958 1-170)
T1 construct: range 1-170; also called HCV-C170; free HCV-C170; not shown: His6-tag fused at the C-terminus
T1 sequence: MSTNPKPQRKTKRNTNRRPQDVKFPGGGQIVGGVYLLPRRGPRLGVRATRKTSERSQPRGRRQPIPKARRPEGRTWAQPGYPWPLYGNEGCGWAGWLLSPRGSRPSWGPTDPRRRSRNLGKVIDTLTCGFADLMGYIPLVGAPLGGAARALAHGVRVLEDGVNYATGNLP

T2: OmpF porin purified from Salmonella typhi (Salmonella typhi, UniProt Q56113 23-363)
T2 construct: also called S. typhi OmpF; OmpF antigen
T2 sequence: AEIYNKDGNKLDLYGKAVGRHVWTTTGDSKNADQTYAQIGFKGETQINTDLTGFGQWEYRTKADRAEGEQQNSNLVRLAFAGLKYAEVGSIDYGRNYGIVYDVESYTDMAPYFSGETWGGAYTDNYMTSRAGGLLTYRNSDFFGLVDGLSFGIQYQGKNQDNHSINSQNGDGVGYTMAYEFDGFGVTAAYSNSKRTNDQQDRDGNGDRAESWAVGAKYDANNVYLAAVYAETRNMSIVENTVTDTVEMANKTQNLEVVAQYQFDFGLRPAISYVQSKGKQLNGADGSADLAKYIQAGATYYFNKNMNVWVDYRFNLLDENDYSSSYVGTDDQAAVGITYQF

T3: HCV core protein (1-170) NLPs (hepatitis C virus (plasmid pCV-H77c), UniProt P27958 1-170)
T3 construct: range 1-170; also called HCV-C170 NLP; not shown: His6-tag fused at the C-terminus
T3 sequence: T1 sequence

B1: PapMVCP-STASYTR (VLPs of PapMV coat protein fused to the HCV core affinity peptide STASYTR and a histidine tag) (designed binder)
chain: MASTPNIAFPAITQEQMSSIKVDPTSNLLPSQEQLKSVSTLMVAAKVPAASVTTVALELVNFCYDNGSSAYTTVTGPSSIPEISLAQLASIVKASGTSLRKFCRYFAPIIWNLRTDKMAPANWEASGYKPSAKFAAFDFFDGVENPAAMQPPSGLTRSPTQEERIANATNKQVHLFQAAAQDNNFASNSAFITKGQISGSTPTIQFLPPPETSSTASYTRTRHHHHHH
notes: also called PapSTA; PapMV-STASYTR

Legend:
[1] = biological target: T1, free (non-NLP) HCV core protein (1-170); test: phage display panning (Ph.D.-7 library) on HCV-C170 adsorbed to a plate, 4 rounds, elution with target protein
[2] = biological target: T2, OmpF porin purified from Salmonella …; test: phage display panning (Ph.D-7 library) on purified OmpF coated on an ELISA plate, 3 rounds
[3] = biological target: T1, free (non-NLP) HCV core protein (1-170); test: ELISA-type binding assay, free (non-NLP) HCV-C170 coated at 1 µg/ml, 2-fold serial dilution of PapMVCP-STASYTR, detected with rabbit anti-PapMV CP polyclonal
[4] = biological target: T3, HCV core protein (1-170) NLPs; test: ELISA-type binding assay, HCV-C170 NLP coated at 1 µg/ml, 2-fold serial dilution of PapMVCP-STASYTR, detected with rabbit anti-PapMV CP polyclonal

Binder	binding result [1]	other results
STASYTR (not fully specified) [HCV core affinity peptide STASYTR]	binds	
FHEFWPT (not fully specified) [OmpF affinity peptide FHEFWPT]		binding result [2]: binds
B1		binding result [3]: binds; binding result [4]: binds
FHENWPS (not fully specified) [OmpF affinity peptide FHENWPS]		binding result [2]: binds
GVQIMGR (not fully specified) [HCV core affinity peptide GVQIMGR]	binds	
NASSLRS (not fully specified) [HCV core affinity peptide NASSLRS]	binds	
HSPKNLH (not fully specified) [HCV core affinity peptide HSPKNLH]	binds	
SIQYTGV (not fully specified) [HCV core affinity peptide SIQYTGV]	binds	
NTPQGMT (not fully specified) [HCV core affinity peptide NTPQGMT]	binds	
GPSTPIR (not fully specified) [HCV core affinity peptide GPSTPIR]	binds	
